US20030068675, “Position dependent recognition of GNN nucleotide triplets by zinc fingers” (published 2003)

Columns and labels:
Assay in all cases: EMSA
Conditions in all cases: tags: MBP fusion
ZFP SBS#750 = ZFP SBS#750 (synthetic)
Summary of the method: (§1)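 Purified ZFP was titrated against labeled double-stranded target (1 nM or lower, at least 10-fold below expected Kd) carrying the natural binding site with flanks. Binding buffer was 10 mM Tris pH 7.5, 100 mM KCl, 1 mM MgCl2, 0.1 mM ZnCl2, 5 mM DTT, 10% glycerol, 0.02% BSA, with equilibration for at least 45 min. Bound and free target were separated on a 10% polyacrylamide gel.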

ZFP SBS#827 = target: T1, ZFP SBS#827 (synthetic)
T1 chain: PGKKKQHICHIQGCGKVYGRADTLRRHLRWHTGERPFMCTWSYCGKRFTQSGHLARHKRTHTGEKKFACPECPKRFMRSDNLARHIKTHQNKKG
Summary of the method: as §1

ZFP SBS#826 = target: T2, ZFP SBS#826 (synthetic)
T2 chain: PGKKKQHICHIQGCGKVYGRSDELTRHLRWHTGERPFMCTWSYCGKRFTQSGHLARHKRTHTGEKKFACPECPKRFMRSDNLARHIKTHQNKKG
Summary of the method: as §1

ZFP SBS#431 = target: T3, ZFP SBS#431 (synthetic)
T3 chain: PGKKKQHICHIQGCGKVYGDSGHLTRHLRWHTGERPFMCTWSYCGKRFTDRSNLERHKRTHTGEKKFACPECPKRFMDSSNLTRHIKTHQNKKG
Summary of the method: as §1

ZFP SBS#781 = ZFP SBS#781 (synthetic, UniProt P08047)
Summary of the method: as §1

ZFP SBS#785 = ZFP SBS#785 (synthetic)
ZFP SBS#785 (synthetic), sequence (chain, as listed by the source): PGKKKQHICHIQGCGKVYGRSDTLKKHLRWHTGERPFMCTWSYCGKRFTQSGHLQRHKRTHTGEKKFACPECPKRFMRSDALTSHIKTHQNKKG
Summary of the method: as §1

ZFP SBS#786 = ZFP SBS#786 (synthetic)
ZFP SBS#786 (synthetic), sequence (chain, as listed by the source): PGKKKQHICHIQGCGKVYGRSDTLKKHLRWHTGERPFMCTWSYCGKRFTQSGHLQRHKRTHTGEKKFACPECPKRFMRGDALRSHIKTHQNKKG
Summary of the method: as §1

ZFP SBS#783 = ZFP SBS#783 (synthetic)
Summary of the method: as §1

ZFP SBS#787 = target: T4, ZFP SBS#787 (synthetic)
T4 chain: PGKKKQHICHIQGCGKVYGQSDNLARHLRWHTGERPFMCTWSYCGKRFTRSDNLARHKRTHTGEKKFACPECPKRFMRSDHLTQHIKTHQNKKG
Summary of the method: as §1

ZFP SBS#932 = target: T5, ZFP SBS#932 (synthetic)
T5 chain: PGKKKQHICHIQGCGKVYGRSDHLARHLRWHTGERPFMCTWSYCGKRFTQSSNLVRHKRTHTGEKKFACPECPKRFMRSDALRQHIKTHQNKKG
Summary of the method: as §1

ZFP SBS#903 = ZFP SBS#903 (synthetic)
ZFP SBS#903 (synthetic), sequence (chain, as listed by the source): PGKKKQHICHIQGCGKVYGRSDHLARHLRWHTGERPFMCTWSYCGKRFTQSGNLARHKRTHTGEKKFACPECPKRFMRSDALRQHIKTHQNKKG
Summary of the method: as §1

ZFP SBS#256 = target: T6, ZFP SBS#256 (synthetic)
T6 chain: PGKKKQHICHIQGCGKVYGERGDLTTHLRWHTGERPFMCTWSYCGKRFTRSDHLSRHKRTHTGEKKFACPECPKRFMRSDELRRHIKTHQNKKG
Summary of the method: as §1

ZFP SBS#904 = ZFP SBS#904 (synthetic)
ZFP SBS#904 (synthetic), sequence (chain, as listed by the source): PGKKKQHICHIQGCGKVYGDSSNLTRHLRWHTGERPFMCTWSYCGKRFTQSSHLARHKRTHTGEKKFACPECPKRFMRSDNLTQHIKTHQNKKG
Summary of the method: as §1

ZFP SBS#905 = target: T7, ZFP SBS#905 (synthetic)
T7 chain: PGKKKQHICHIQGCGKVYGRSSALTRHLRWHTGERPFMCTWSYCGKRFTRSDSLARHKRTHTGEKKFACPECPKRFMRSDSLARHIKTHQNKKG
Summary of the method: as §1

ZFP SBS#926 = target: T8, ZFP SBS#926 (synthetic)
T8 chain: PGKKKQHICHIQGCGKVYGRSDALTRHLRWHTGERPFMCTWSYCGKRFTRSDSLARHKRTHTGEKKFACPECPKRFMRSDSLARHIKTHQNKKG
Summary of the method: as §1

ZFP SBS#923 = ZFP SBS#923 (synthetic)
ZFP SBS#923 (synthetic), sequence (chain, as listed by the source): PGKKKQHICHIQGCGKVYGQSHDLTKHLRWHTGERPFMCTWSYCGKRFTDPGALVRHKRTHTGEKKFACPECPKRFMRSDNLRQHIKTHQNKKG
Summary of the method: as §1

ZFP SBS#922 = target: T9, ZFP SBS#922 (synthetic)
T9 chain: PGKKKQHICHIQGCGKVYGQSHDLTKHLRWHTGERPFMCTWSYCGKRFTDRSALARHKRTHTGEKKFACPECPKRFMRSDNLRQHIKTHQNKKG
Summary of the method: as §1

ZFP SBS#908 = target: T10, ZFP SBS#908 (synthetic)
T10 chain: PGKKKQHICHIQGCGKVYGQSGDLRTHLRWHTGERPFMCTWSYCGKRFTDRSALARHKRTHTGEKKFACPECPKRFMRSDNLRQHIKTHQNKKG
Summary of the method: as §1

ZFP SBS#921 = ZFP SBS#921 (synthetic)
ZFP SBS#921 (synthetic), sequence (chain, as listed by the source): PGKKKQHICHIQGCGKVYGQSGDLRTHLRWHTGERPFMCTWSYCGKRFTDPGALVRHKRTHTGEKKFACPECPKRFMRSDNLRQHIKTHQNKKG
Summary of the method: as §1

ZFP SBS#909 = ZFP SBS#909 (synthetic)
ZFP SBS#909 (synthetic), sequence (chain, as listed by the source): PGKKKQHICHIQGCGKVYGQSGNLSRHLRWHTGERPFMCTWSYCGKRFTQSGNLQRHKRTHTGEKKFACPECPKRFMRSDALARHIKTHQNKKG
Summary of the method: as §1

ZFP SBS#910 = ZFP SBS#910 (synthetic)
ZFP SBS#910 (synthetic), sequence (chain, as listed by the source): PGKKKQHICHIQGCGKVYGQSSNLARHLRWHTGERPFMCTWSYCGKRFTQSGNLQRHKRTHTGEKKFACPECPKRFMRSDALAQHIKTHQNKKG
Summary of the method: as §1

ZFP SBS#934 = ZFP SBS#934 (synthetic)
ZFP SBS#934 (synthetic), sequence (chain, as listed by the source): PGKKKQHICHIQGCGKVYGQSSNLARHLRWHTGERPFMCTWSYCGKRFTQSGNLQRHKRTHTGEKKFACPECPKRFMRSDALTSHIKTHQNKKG
Summary of the method: as §1

ZFP SBS#935 = ZFP SBS#935 (synthetic)
Summary of the method: as §1

ZFP SBS#911 = ZFP SBS#911 (synthetic)
ZFP SBS#911 (synthetic), sequence (chain, as listed by the source): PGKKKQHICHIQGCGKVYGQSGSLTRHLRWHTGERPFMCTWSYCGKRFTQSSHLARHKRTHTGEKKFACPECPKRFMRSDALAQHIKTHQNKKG
Summary of the method: as §1

ZFP SBS#912 = target: T11, ZFP SBS#912 (synthetic)
T11 chain: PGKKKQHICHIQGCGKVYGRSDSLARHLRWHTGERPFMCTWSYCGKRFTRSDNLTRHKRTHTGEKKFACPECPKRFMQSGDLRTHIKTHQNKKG
Summary of the method: as §1

ZFP SBS#915 = ZFP SBS#915 (synthetic)
ZFP SBS#915 (synthetic), sequence (chain, as listed by the source): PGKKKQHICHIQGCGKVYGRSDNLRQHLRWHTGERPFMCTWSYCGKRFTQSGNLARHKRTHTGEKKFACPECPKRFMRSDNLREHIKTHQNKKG
Summary of the method: as §1

ZFP SBS#914 = ZFP SBS#914 (synthetic)
ZFP SBS#914 (synthetic), sequence (chain, as listed by the source): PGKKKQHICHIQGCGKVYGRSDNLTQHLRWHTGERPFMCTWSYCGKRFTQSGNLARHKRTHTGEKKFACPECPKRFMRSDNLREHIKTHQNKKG
Summary of the method: as §1

ZFP SBS#916 = ZFP SBS#916 (synthetic)
ZFP SBS#916 (synthetic), sequence (chain, as listed by the source): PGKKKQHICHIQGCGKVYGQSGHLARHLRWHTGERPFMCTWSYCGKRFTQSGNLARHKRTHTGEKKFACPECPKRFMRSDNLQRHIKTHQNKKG
Summary of the method: as §1

ZFP SBS#920 = ZFP SBS#920 (synthetic)
ZFP SBS#920 (synthetic), sequence (chain, as listed by the source): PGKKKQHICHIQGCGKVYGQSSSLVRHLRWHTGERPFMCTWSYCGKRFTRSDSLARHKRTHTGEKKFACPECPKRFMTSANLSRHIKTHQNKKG
Summary of the method: as §1

ZFP SBS#928 = target: T12, ZFP SBS#928 (synthetic)
T12 chain: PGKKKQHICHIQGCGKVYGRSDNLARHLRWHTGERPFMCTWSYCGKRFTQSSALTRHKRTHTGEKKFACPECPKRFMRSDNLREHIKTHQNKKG
Summary of the method: as §1

ZFP SBS#927 = target: T13, ZFP SBS#927 (synthetic)
T13 chain: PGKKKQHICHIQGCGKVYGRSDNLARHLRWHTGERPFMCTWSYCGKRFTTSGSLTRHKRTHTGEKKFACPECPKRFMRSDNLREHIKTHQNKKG
Summary of the method: as §1

ZFP SBS#929 = target: T14, ZFP SBS#929 (synthetic)
T14 chain: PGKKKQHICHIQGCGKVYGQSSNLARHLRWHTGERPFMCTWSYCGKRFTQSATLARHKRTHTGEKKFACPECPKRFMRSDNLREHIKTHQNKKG
Summary of the method: as §1

ZFP SBS#931 = ZFP SBS#931 (synthetic)
ZFP SBS#931 (synthetic), sequence (chain, as listed by the source): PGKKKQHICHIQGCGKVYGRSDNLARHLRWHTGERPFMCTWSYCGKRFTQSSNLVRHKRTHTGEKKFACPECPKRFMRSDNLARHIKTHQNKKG
Summary of the method: as §1

ZFP SBS#933 = target: T15, ZFP SBS#933 (synthetic)
T15 chain: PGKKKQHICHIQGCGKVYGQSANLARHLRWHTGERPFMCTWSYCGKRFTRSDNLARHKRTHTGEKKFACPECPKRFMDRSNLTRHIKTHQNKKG
Summary of the method: as §1

ZFP SBS#945 = target: T16, ZFP SBS#945 (synthetic)
T16 chain: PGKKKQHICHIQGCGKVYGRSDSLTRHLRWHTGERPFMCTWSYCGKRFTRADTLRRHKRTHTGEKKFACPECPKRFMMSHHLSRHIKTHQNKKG
Summary of the method: as §1

ZFP SBS#947 = ZFP SBS#947 (synthetic)
ZFP SBS#947 (synthetic), sequence (chain, as listed by the source): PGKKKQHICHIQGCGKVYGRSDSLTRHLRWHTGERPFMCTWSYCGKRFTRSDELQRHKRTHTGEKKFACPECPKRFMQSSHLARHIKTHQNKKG
Summary of the method: as §1

ZFP SBS#948 = ZFP SBS#948 (synthetic)
ZFP SBS#948 (synthetic), sequence (chain, as listed by the source): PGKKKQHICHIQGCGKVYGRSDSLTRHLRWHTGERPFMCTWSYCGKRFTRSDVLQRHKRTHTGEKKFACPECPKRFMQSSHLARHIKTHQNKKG
Summary of the method: as §1

ZFP SBS#946 = target: T17, ZFP SBS#946 (synthetic)
T17 chain: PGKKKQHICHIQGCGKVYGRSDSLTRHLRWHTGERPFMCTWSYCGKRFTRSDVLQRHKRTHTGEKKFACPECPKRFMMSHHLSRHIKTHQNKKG
Summary of the method: as §1

ZFP SBS#963 = ZFP SBS#963 (synthetic)
Summary of the method: as §1

ZFP SBS#962 = ZFP SBS#962 (synthetic, UniProt P08047)
ZFP SBS#962, sequence (P08047 other isoform, or with tags, fused parts or gaps): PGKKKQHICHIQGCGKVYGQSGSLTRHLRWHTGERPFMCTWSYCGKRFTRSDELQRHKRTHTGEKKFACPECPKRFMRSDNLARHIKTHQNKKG
Summary of the method: as §1

B1: GAGGGAGCGA (dsDNA)
DNA 1: GAGGGAGCGA
DNA 2: TCGCTCCCTC
ZFP SBS#750
  Kd: 52 nM
ZFP SBS#827
  Kd: 1.2 nM
ZFP SBS#826
  Kd: 2.75 nM

B2: GACGACGGC (dsDNA)
DNA 1: GACGACGGC
DNA 2: GCCGTCGTC
ZFP SBS#431
  Kd: 100 nM

B3: GGGGAGCAGC (dsDNA)
DNA 1: GGGGAGCAGC
DNA 2: GCTGCTCCCC
ZFP SBS#781
  Kd: 4.25 nM

B4: TTGGGAGCGG (dsDNA)
DNA 1: TTGGGAGCGG
DNA 2: CCGCTCCCAA
ZFP SBS#785
  Kd: 50 nM
ZFP SBS#786
  Kd: 2000 nM
ZFP SBS#783
  Kd: 2000 nM

B5: AGGGAGGATG (dsDNA)
DNA 1: AGGGAGGATG
DNA 2: CATCCTCCCT
ZFP SBS#787
  Kd: 4 nM

B6: ATGGAAGGG (dsDNA)
DNA 1: ATGGAAGGG
DNA 2: CCCTTCCAT
ZFP SBS#932
  Kd: 797 nM
ZFP SBS#903
  Kd: 1.03 nM

B7: GCGGGGTCC (dsDNA)
DNA 1: GCGGGGTCC
DNA 2: GGACCCCGC
ZFP SBS#256
  Kd: 800 nM

B8: AAGGGTGAC (dsDNA)
DNA 1: AAGGGTGAC
DNA 2: GTCACCCTT
ZFP SBS#904
  Kd: 1 nM

B9: GTGGTGGTG (dsDNA)
DNA 1: GTGGTGGTG
DNA 2: CACCACCAC
ZFP SBS#905
  Kd: 1.15 nM
ZFP SBS#926
  Kd: 7.5 nM

B10: AAGGTCTCA (dsDNA)
DNA 1: AAGGTCTCA
DNA 2: TGAGACCTT
ZFP SBS#923
  Kd: 2 nM
ZFP SBS#922
  Kd: 4 nM
ZFP SBS#908
  Kd: 50 nM
ZFP SBS#921
  Kd: 11 nM

B11: GTGGAAGAA (dsDNA)
DNA 1: GTGGAAGAA
DNA 2: TTCTTCCAC
ZFP SBS#909
  Kd: 16.4 nM

B12: ATGGAAGAT (dsDNA)
DNA 1: ATGGAAGAT
DNA 2: ATCTTCCAT
ZFP SBS#910
  Kd: 0.03 nM
ZFP SBS#934
  Kd: 0.07 nM

B13: ATGGGTGCA (dsDNA)
DNA 1: ATGGGTGCA
DNA 2: TGCACCCAT
ZFP SBS#935
  Kd: 0.91 nM
ZFP SBS#911
  Kd: 0.91 nM

B14: TCAGAGGTG (dsDNA)
DNA 1: TCAGAGGTG
DNA 2: CACCTCTGA
ZFP SBS#912
  Kd: 0.135 nM

B15: CAGGAAAAG (dsDNA)
DNA 1: CAGGAAAAG
DNA 2: CTTTTCCTG
ZFP SBS#915
  Kd: 45.1 nM
ZFP SBS#914
  Kd: 1.26 nM

B16: GAGGAAGGA (dsDNA)
DNA 1: GAGGAAGGA
DNA 2: TCCTTCCTC
ZFP SBS#916
  Kd: 1.3 nM

B17: GATGTGGTA (dsDNA)
DNA 1: GATGTGGTA
DNA 2: TACCACATC
ZFP SBS#920
  Kd: 4 nM

B18: CAGGTTGAG (dsDNA)
DNA 1: CAGGTTGAG
DNA 2: CTCAACCTG
ZFP SBS#928
  Kd: 25 nM
ZFP SBS#927
  Kd: 3.61 nM

B19: CAGGTAGAT (dsDNA)
DNA 1: CAGGTAGAT
DNA 2: ATCTACCTG
ZFP SBS#929
  Kd: 1.3 nM

B20: GAGGAAGAG (dsDNA)
DNA 1: GAGGAAGAG
DNA 2: CTCTTCCTC
ZFP SBS#931
  Kd: 2 nM

B21: GACGAGGAA (dsDNA)
DNA 1: GACGAGGAA
DNA 2: TTCCTCGTC
ZFP SBS#933
  Kd: 500 nM

B22: GGTGCGGTG (dsDNA)
DNA 1: GGTGCGGTG
DNA 2: CACCGCACC
ZFP SBS#945
  Kd: 0.027 nM
ZFP SBS#947
  Kd: 0.013 nM
ZFP SBS#948
  Kd: 0.017 nM
ZFP SBS#946
  Kd: 0.027 nM

B23: GAGGCGGCA (dsDNA)
DNA 1: GAGGCGGCA
DNA 2: TGCCGCCTC
ZFP SBS#963
  Kd: 0.015 nM
ZFP SBS#962
  Kd: 0.015 nM
